The record followed here is patent US20210388110A1 (published 2021).

The assay concerns the target T1, soluble human CD3ε chain (human, UniProt P07766 23-126, limits assumed).
T1 construct: the text says soluble human CD3ε chain; also called human CD3 epsilon chain
The assay can be described thus: SPR (Biacore).

Substitutions are numbered along the chain they refer to.

T1 sequence (P07766 23-126 limits assumed): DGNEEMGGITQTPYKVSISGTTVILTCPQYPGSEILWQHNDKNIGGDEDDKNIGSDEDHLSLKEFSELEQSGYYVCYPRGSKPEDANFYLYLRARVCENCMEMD

B1: TR01H067-E22Hh/none-Hi-Kn010G3/L0201-k0 (antibody, human IgG1, kappa, L234A L235A, N297A)
heavy: QVQLVESGGGLVQPGRSLRLSCAASGFTFSNAWMHWVRQAPGKGLEWVAQIKDKSQNYATYYAESVKGRFTISRDDSKNSLYLQMNSLKTEDTAVYYCRYVHYAASYGVDAWGQGTTVTVSSASTKGPSVFPLAPSSKSTSGGTAALGCLVKDYFPEPVTVSWNSGALTSGVHTFPAVLQSSGLYSLSSVVTVPSSSLGTQTYICNVNHKPSNTKVDKKVEPKSCDKTHTCPPCPAPEAAGGPSVFLFPPKPKDTLMISRTPEVTCVVVDVSHEDPEVKFNWYVDGVEVHNAKTKPREEQYASTYRVVSVLTVLHQDWLNGKEYKCKVSNKALPAPIEKTISKAKGQPREPQVYTLPPSRCELTKNQVSLSCAVKGFYPSDIAVEWESNGQPENNYKTTPPVLDSDGSFFLVSKLTVDKSRWQQGNVFSCSVMHEALHNHYTQKSLSLSPDYKDDDDK
chain: EPKSSDKTHTCPPCPAPELLGGPSVFLFPPKPKDTLMISRTPEVTCVVVDVSHEDPEVKFNWYVDGVEVHNAKTKPREEQYNSTYRVVSVLTVLHQDWLNGKEYKCKVSNKALPAPIEKTISKAKGQPREPQVCTLPPSRDELTKNQVSLWCLVKGFYPSDIAVEWESNGQPENNYKTTPPVLDSDGSFFLYSKLTVDKSRWQQGNVFSCSVMHEALHNRYTQKSLSLSP
light: DIVMTQSPLSLPVTPGEPASISCRSSQPPVHSNRNTYLHWYQQKPGQAPRLLIYKVSNRFSGVPDRFSGSGSGTDFTLKISRVEAEDVGVYYCGQGTQVPYTFGQGTKLEIKRTVAAPSVFIFPPSDEQLKSGTASVVCLLNNFYPREAKVQWKVDNALQSGNSQESVTEQDSKDSTYSLSSTLTLSKADYEKHKVYACEVTHQGLSSPVTKSFNRGEC
notes: single-arm
B1 had a dissociation constant Kd of 59.3 nM.

B2: TR01H071-E22Hh/none-Hi-Kn010G3/L0222-k0 (antibody, human IgG1, kappa, L234A L235A, N297A)
heavy: B1 heavy with Q56N, D75A, L81I, A111I
chain: B1 chain
light: B1 light with P28S, L38I, H39Q, G94Y
notes: single-arm
B2 yielded a dissociation constant Kd of 10.4 nM.

B3: TR01H069-E22Hh/none-Hi-Kn010G3/L0000-k0 (antibody, human IgG1, kappa, L234A L235A, N297A)
heavy: B1 heavy with L11V, R16G, A111I
chain: B1 chain
light: B1 light with P28S, P29L
notes: single-arm
Consider B3, for which the Kd is 71.1 nM.

B4: TR01H067-E22Hh/none-Hi-Kn010G3/L0262-k0 (antibody, human IgG1, kappa, L234A L235A, N297A)
heavy: B1 heavy
chain: B1 chain
light: B1 light with G94A
notes: single-arm
Take B4: binding was characterised by a dissociation constant (Kd) of 49.2 nM.

B5: TR01H071-E22Hh/none-Hi-Kn010G3/L0000-k0 (antibody, human IgG1, kappa, L234A L235A, N297A)
heavy: B1 heavy with Q56N, D75A, L81I, A111I
chain: B1 chain
light: B1 light with P28S, P29L
notes: single-arm
In the case of B5, the Kd is 8.85 nM.

B6: TR01H067-E22Hh/none-Hi-Kn010G3/TR01L016-k0 (antibody, human IgG1, kappa, L234A L235A, N297A)
heavy: B1 heavy
chain: B1 chain
light: B1 light with P28S, Q42L, A48S, R50Q, G94Y
notes: single-arm
Molecule B6 yielded a Kd of 10.9 nM.

B7: TR01H067-E22Hh/none-Hi-Kn010G3/TR01L019-k0 (antibody, human IgG1, kappa, L234A L235A, N297A)
heavy: B1 heavy
chain: B1 chain
light: B1 light with R24Q, S25A, Q27E, P28S, Q42L, A48S, R50Q, G94Y
notes: single-arm
In the case of B7, the equilibrium dissociation constant (Kd) came to 12.1 nM. This Kd and that of the molecule before are within 1.5-fold of each other.

B8: TR01H067-E22Hh/none-Hi-Kn010G3/L0203-k0 (antibody, human IgG1, kappa, L234A L235A, N297A)
heavy: B1 heavy
chain: B1 chain
light: B1 light with P28S, L38I
notes: single-arm
B8 had a Kd of 47.9 nM.

B9: TR01H071-E22Hh/none-Hi-Kn010G3/L0200-k0 (antibody, human IgG1, kappa, L234A L235A, N297A)
heavy: B1 heavy with Q56N, D75A, L81I, A111I
chain: B1 chain
light: B1 light with S25P, P28S
notes: single-arm
B9: the Kd is 6.13 nM.

B10: TR01H071-E22Hh/none-Hi-Kn010G3/L0215-k0 (antibody, human IgG1, kappa, L234A L235A, N297A)
heavy: B1 heavy with Q56N, D75A, L81I, A111I
chain: B1 chain
light: B1 light with L38I
notes: single-arm
The molecule B10 displayed a Kd of 9.51 nM. This Kd lies about 1.6-fold higher than the previous one.

B11: TR01H067-E22Hh/none-Hi-Kn010G3/L0212-k0 (antibody, human IgG1, kappa, L234A L235A, N297A)
heavy: B1 heavy
chain: B1 chain
light: B1 light with S25P, P28S, G94Y
notes: single-arm
The molecule B11 displayed an equilibrium dissociation constant (Kd) of 5.88 nM.
